Data published in PMC5750462 (Emerging Microbes & Infections, 2017).

Molecular target: the molecule itself
Test: BLI; […] (PBS, 0.01% BSA, 0.002% Tween-20); […]

B1: recombinant N1-165-domain of wild-type (wt) matrix protein 1 (M1), influenza A virus A/WSN/33 (domain or fragment)
chain: MSLLTEVETYVLSIVPSGPLKAEIAQRLEDVFAGKNTDLEVLMEWLKTRPILSPLTKGILGFVFTLTVPSERGLQRRRFVQNALNGNGDPNNMDKAVKLYRKLKREITFHGAKEIALSYSAGALASCMGLIYNRMGAVTTEVAFGLVCATCEQIADSQHRSHRQM
binding result: binds
